Experimental data as given in US7851591 (Dana-Farber, dated 2010).

B1: hTERT peptide I540 (ILAKFLHWL) (peptide)
peptide: ILAKFLHWL
notes: Only the start position aa540 is printed; the end of the range follows from the length of the nonapeptide; also called hTERT I540
B2: hTERT peptide E555 (ELLRSFFYV) (peptide)
peptide: ELLRSFFYV
notes: Only the start position aa555 is printed; the end of the range follows from the length of the nonapeptide
B3: hTERT peptide R865 (RLVDDFLLV) (peptide)
peptide: RLVDDFLLV
notes: Only the start position aa865 is printed; the end of the range follows from the length of the nonapeptide

Each binder was assayed against T1, human HLA-A*0201 (human) (assay: T2 cell assay: peptide plus beta2-microglobulin pulsed 18 h, HLA-A*0201 surface expression by flow cytometry with mAb BB7.2).
T1 construct: In the T2 assay the MHC stands on the cell surface; also called HLA-A2

**Q.** Does HFLLWKLIA [I540-S, scrambled hTERT I540 peptide (HFLLWKLIA), negative control] bind?
**A.** no binding (tested: 50 µg/ml)

**Q.** Does AHTKDGFNF (Only the start position aa98 is printed) [A98-Id idiotype peptide (AHTKDGFNF), negative control] bind?
**A.** no binding (tested: 50 µg/ml)

The binders below were run against T1, human HLA-A*0201 (assay: T2 cell assay, 50 µg/ml peptide plus 5 µg/ml b2m for 18 h, flow cytometry with mAb BB7.2; (MFI with peptide - MFI without)/MFI without).

**Q.** Which “Fluorescence Index” value does the source give for B1 here?
**A.** 3.1

**Q.** With B2 as the binder, how does the “Fluorescence Index” value read?
**A.** 2.2

**Q.** For B3, which “Fluorescence Index” value is on record?
**A.** 2.2

**Q.** For HFLLWKLIA [I540-S, scrambled hTERT I540 peptide (HFLLWKLIA), negative control], which “Fluorescence Index” value is on record?
**A.** 0.2

**Q.** With AHTKDGFNF (Only the start position aa98 is printed) [A98-Id idiotype peptide (AHTKDGFNF), negative control] as the binder, how does the “Fluorescence Index” value read?
**A.** 0
